Target: StrepTag II-IsdB (Staphylococcus aureus iron-regulated surface determinant protein B) (S. aureus, UniProt Q2FZF0 41-613)
Test: SAXS

StrepTag II-IsdB (Staphylococcus aureus iron-regulated surface determinant protein B), sequence (Q2FZF0 41-613): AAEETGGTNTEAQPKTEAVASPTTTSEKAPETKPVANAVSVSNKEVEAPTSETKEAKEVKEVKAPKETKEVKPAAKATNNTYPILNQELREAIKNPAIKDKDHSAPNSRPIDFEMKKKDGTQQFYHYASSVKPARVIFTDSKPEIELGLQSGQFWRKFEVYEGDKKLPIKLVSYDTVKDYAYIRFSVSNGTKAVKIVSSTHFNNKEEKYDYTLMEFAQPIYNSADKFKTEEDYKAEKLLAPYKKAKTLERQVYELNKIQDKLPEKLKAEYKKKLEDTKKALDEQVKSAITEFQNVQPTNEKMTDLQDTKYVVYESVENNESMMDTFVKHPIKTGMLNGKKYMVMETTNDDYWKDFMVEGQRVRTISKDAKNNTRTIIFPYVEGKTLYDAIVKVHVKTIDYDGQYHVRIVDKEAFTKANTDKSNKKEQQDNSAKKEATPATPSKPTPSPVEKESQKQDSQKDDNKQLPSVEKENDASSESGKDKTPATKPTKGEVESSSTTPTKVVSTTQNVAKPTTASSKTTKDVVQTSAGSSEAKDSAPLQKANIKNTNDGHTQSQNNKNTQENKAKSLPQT

B1: human methemoglobin (coordinating oxidized heme) (complex)
chain 1: not shown
chain 2: not shown
Kd: 1680 ± 620 nM
